Measured values published in patent US20260263364A1, “OSTEOCLAST-DERIVED MICROVESICLES AND METHODS OF PROMOTING BONE REGENERATION” (The United States Government as represented by the …, priority 2023, published 2026).

Tested on: osteoclastic cells
Assay: Release of soluble EfnB2 into CM by osteoclastic cells (Western blots)
Assay type: cell-based
Source text: Regarding the EfnB2, EfnB2 on the plasma membrane of osteoclasts binds the EphB4 receptor on the cell surface of nearby osteoprogenitors to trigger the EfnB2-EphB4 bidirectional signaling, which on the one hand suppresses osteoclastic resorption through activation of the reverse signaling of EfnB2 in osteoclasts and on the other hand upregulates the EphB4 forward signaling in osteoblasts to stimulate osteoblast maturation and activity. However, this bidirectional signaling mechanism requires direct cell-cell contact between osteoclasts and osteoprogenitors. Given the fact that very few osteoblasts or progenitors are present at the remodeling site that could make direct contact with the resorbing osteoclast, this cell-cell contact-dependent bidirectional mechanism is unlikely a major mechanism for the coupled bone formation under normal situations. It also could not be responsible for the soluble osteoanabolic activity of osteoclasts. […] Treatment with EfnA4-fc or PTH increased its releases each by ~75% and the large majority of the released EfnB2 was associated with the MV fraction. As an initial test of the possibility that EfnB2 is a candidate for an osteoanabolic component, it was tested whether the osteogenic activity of CM or that of MV could be blocked by pretreatment with anti-EfnB2 antibody. […]

B1: PTH: used to increase bone turnover / stimulate bone remodeling (protein, UniProt P01270 32-115, looked up)
Parathyroid hormone: SVSEIQLMHNLGKHLNSMERVEWLRKKLQDVHNFVALGAPLAPRDAGSQRPRKKEDNVLVESHEKSLGEADKADVNVLTKAKSQ
modifications: Parathyroid hormone
notes: used to increase bone turnover / stimulate bone remodeling
Question: B1 was tested. Which “increase of release of soluble EfnB2” value did it give?
Answer: ~ 75%
